1 molecule from patent US5416015A, “Isolated genes encoding peptidyl prolyl-cis.trans-isomerase and plasmids comprising said genes” (Tonen Corporation, priority 1989, dated 1995) can be followed below.

The data set is described as follows: Specific activity of enzyme (PPIase activity measurement). In kind it is biochemical. The conditions noted are these: recombinant E. coli PPIase-β, FIG. 26. The text has this:
As a result, the specific activity of the natural enzyme was.51,480 arbitrary units/[…] 1 unit, while that of the recombinant enzyme was 52,876 arbitrary units/A280 1 unit. Thus, no distinction could be made on specific activity (FIG. 26).

B1: recombinant enzyme: E. coli PPIase-β produced by E. coli HB101 transformed with expression plasmid pATtrp EPPIb (protein, UniProt P23869 1-164, looked up)
Peptidyl-prolyl cis-trans …: MVTFHTNHGDIVIKTFDDKAPETVKNFLDYCREGFYNNTIFHRVINGFMIQGGGFEPGMKQKATKEPIKNEANNGLKNTRGTLAMARTQAPHSATAQFFINVVDNDFLNFSGESLQGWGYCVFAEVVDGMDVVDKIKGVATGRSGMHQDVPKEDVIIESVTVSE
In the case of B1, the specific activity is listed as 52,876 arbitrary units/A280 1 unit.
